In US20190309093A1 (Y BIOLOGICS, published 2019):

B1: ACE-05 (bispecific antibody)
heavy 1: not shown
heavy 2: not shown
light: QLVLTQPPSVSGAPGQRVTISCTGSSSNIGAGYDVHWYQQLPGAAPKLLIYGDINRPSGVPDRFSGSKSGISASLAITGLQAEDEADYYCQSYDSSLSGGVFGGGTKLTVLRTVAAPSVFIFPPSDEQLKSGTASVVCLLNNFYPREAKVQWKVDNALQSGNSQESVTEQDSKDSTYSLSSTLTLSKADYEKHKVYACEVTHQGLSSPVTKSFNRGEC
notes: The Fab regions are bivalent for PD-L1 and the Fv is monovalent for CD3; also called ALiCE molecule ACE-05
B2: UCHT1 (antibody, V domains shown)
VH: EVQLQQSGPELVKPGPSMKISCKASGYSFTGYTMNWVKQSHGKNLEWMGLINPYKGVSTYNQKFKDKATLTVDKSSSTAYMELLSLTSEDSAVYYCARSGYYGDSDWYFDVWGQGTTLTVFS
VL: DIQMTQTTSSLSASLGDRVTISCRASQDIRNYLNWYQQKPDGTVKLLIYYTSRLHSGVPSKFSGSGSGTDYSLTISNLEQEDIATYFCQQGNTLPWTFAGGTKLEIKR
notes: Bought antibody

What was measured:
[1] = target: T1, hCD3εγ chains; test: ELISA on hCD3εγ chains, fit value of a flat curve, unit taken from the x axis Antibody [nM]
T1 construct: copies: 1 + 1
T1 epsilon: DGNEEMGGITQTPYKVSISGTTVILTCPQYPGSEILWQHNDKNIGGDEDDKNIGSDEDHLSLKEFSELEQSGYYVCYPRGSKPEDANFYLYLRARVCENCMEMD
T1 gamma: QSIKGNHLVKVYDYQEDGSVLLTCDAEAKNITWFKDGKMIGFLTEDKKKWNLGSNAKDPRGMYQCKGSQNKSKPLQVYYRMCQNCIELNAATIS

[2] = target: T2, CD3 on Jurkat luciferase reporter cells (UniProt P07766 23-207); test: flow cytometry of Jurkat_NFAT_Luc2P cells, FITC-A; fold over hIgG
T2 construct: whole, on cells; also called CD3 positive Jurkat cell line with NFAT luciferase reporter

| Binder | Kd [1] | Fold [2] |
| --- | --- | --- |
| B1 | 0.035 nM | – |
| B2 | – | 35 |
